Key:
[1] = target: Notch3-LD/Fc fusion protein (human Notch3 LIN12/dimerization domain fused to human gamma 1 Fc) (human) [IgG part: P01857]; test: ELISA on Notch3-LD/Fc
[2] = target: human Notch3 receptor, full-length (human) (UniProt Q9UM47); test: FACS on Sup-T1 cells naturally expressing Notch3
[3] = target: human Notch3 receptor, full-length (human) (UniProt Q9UM47); test: FACS on 293T cells expressing Notch3 (Notch3/Hyg)
[4] = target: Notch3-LD/Fc fusion protein (human Notch3 LIN12/dimerization domain fused to human gamma 1 Fc) (human) [IgG part: P01857]; test: ELISA, plate coated with Notch3-LD/Fc, hybridoma supernatant
[5] = target: Notch3-D1/Fc (human) (UniProt Q9UM47); test: ELISA on Notch3-domain/Fc fusion proteins
[6] = target: Notch3-D2/Fc (human) (UniProt Q9UM47); test: ELISA on Notch3-domain/Fc fusion proteins

Notch3-LD/Fc fusion protein (human Notch3 LIN12/dimerization domain fused to human gamma 1 Fc) (human) [IgG part: P01857], sequence (P01857 other isoform, or with tags, fused parts or gaps limits assumed): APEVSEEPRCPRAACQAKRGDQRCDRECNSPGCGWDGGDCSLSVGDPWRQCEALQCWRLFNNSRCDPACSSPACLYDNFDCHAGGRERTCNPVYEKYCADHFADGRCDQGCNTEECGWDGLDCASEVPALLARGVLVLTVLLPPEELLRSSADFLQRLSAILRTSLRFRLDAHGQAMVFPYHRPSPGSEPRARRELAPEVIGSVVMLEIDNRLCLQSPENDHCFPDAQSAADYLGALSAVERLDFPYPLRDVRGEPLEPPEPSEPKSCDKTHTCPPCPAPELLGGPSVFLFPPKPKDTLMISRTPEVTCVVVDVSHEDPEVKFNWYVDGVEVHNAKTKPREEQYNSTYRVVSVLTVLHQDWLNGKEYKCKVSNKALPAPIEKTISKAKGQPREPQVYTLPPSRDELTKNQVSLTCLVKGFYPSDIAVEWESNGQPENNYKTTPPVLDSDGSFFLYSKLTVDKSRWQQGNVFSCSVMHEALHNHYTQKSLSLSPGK
human Notch3 receptor, full-length (human), sequence (Q9UM47 40-2321 A2223V limits assumed): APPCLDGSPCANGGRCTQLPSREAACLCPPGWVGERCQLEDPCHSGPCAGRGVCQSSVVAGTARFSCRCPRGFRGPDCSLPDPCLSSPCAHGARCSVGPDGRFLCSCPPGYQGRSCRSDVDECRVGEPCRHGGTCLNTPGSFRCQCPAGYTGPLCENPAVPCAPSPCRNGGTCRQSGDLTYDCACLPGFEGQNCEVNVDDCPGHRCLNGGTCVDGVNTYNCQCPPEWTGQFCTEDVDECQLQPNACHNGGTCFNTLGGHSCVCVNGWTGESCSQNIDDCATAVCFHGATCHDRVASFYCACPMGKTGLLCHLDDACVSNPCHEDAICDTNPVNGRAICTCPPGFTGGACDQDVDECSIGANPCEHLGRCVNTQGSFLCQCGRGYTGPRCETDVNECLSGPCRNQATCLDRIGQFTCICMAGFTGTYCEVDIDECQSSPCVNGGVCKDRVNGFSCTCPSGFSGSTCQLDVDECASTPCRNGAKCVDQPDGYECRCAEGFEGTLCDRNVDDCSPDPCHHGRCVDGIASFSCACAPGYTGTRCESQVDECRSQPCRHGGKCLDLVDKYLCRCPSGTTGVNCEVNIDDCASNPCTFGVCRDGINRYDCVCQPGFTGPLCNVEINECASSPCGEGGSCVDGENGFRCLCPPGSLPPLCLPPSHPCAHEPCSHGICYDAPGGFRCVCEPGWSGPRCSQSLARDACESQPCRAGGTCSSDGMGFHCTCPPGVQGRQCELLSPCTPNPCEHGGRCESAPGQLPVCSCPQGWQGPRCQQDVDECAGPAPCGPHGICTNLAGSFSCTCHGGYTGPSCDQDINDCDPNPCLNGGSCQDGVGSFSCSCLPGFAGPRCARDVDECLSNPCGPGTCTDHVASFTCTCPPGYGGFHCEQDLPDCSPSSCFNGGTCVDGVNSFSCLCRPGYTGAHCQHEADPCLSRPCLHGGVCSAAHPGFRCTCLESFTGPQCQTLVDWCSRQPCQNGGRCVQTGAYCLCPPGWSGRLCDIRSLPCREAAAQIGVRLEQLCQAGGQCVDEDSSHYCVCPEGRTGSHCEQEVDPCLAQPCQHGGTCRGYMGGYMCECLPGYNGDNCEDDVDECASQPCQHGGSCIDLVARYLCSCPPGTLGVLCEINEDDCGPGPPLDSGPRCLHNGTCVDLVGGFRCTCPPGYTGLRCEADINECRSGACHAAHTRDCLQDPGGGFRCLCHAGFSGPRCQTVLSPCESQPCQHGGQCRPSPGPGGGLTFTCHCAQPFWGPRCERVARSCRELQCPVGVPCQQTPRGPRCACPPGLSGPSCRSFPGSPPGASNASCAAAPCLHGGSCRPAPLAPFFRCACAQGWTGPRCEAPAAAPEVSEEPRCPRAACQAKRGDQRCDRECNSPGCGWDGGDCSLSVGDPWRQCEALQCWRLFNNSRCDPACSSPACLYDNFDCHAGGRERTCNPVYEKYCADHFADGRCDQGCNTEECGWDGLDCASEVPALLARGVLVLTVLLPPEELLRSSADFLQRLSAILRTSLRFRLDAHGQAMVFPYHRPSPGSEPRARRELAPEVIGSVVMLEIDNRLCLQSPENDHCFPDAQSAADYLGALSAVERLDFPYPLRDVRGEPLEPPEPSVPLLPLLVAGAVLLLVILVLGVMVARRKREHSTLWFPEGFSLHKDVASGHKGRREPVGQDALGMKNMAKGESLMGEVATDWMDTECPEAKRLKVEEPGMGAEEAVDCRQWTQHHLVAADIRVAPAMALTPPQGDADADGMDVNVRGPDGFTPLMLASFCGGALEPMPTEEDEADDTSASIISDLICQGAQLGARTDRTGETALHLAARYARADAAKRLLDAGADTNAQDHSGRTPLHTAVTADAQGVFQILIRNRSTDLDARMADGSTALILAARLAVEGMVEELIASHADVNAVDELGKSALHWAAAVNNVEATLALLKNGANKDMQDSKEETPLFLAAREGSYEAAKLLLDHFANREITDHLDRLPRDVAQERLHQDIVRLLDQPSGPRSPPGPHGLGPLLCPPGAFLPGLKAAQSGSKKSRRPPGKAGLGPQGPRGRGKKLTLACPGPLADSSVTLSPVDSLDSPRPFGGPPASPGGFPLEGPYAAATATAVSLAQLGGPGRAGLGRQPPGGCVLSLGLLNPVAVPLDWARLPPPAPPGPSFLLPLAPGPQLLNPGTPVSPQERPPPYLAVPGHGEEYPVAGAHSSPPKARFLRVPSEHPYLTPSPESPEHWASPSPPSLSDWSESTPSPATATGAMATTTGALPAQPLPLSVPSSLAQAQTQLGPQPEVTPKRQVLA

| Molecule | ELISA OD reading (mean) [1] [OD] | mean fluorescent intensity [2] [MFI] | mean fluorescent intensity [3] [MFI] | ELISA OD reading (mean) [4] | ELISA OD reading [5] [OD] | ELISA OD reading [6] [OD] |
| --- | --- | --- | --- | --- | --- | --- |
| Control IgG1 MAb (antibody) | 0.063 | 24.5 | 24.2 | 0.019 OD (450 nm) |  |  |
| anti-Notch3 monoclonal antibody MAb 256A-13 (antibody, IgG1, V domains shown) VH: SQVQLQQSGAELAKPGTSVKMACKASGYTFTTHWMNWVKQRPGQGLEWIGTINPSNDFTDCNQKFKDKAILTADKSSSTAYMQLSSLTSEDSAIYYCASGLTARAWFAYWGQGTLVTVSAA VL: RATISCRASQSVTTSNYSYMHWFQQKPGQPPKLLIKYASNLDSGVPARFSGSGSGTDFTLNIHPVEEEDTATFYCQHSWEIPYTFGGGTNLEIKRADAAPTV |  |  |  |  | 0.015 | 0.015 |

Reference: patent US20120213785A1
